Assay results reported in paper PMC4735289, “Seasonal induction of alternative principal pathway for rose flower scent” (Scientific Reports, 2016).

Experiments:
purified protein = substrate: CC(=O)C(=O)O; assay: purified protein; assay type: biochemical, Rosa hybrid cultivar; details: 1 mM TPP, 5 mM MgCl2, 0.1 M citrate pH 6.0, 40 °C
[1] = substrate: O=C(O)C(=O)Cc1ccccc1; assay: PPA decarboxylation; phenylacetaldehyde extracted and measured by GC-MS; assay type: biochemical, Rosa hybrid cultivar; details: 1 mM TPP, 5 mM MgCl2, 0.1 M citrate pH 6.0, 40 °C
Text: PPA decarboxylation; phenylacetaldehyde extracted and measured by GC-MS on […] | the kcat/Km value of […] was higher for PPA than for pyruvic acid (PA)

B1: RyPPDC (Rosa hybrid cultivar) (protein)
chain: MEPSTLIGATPRPTSALLPVVPAAACSGTLGRHLARRLVEIGVHDVFSVPGDFNLTLLDHLIAEPELNLIGCCNELNAGYAADGYARARGVGACVVTFTVGGLSVLNAIAGAYSENLPVICIVGGPNSNDYGTNRILHHTIGLPDFTQELRCFQTVTCHQAVVSHLEDAHELIDTAISTALKESKPVYISISCNLPAIPHPTFGRDPVPFFIAPKVSNQIGLEAAVEATAAFLNKAVKPVLVGGPKLRVAKAQKAFVELADASGYPMAVMPSGKGLVPEHHPHFIGTYWGAVSTSFCGEIVESADAYVFVGPIFNDYSSVGYSLLIKKEKAIIVEPNRVTIGNGPSFGWVFMGDFLTALAKKLKKNSTGMENYCRIFVPPGIPLKAQKDEPLRVNVLFKHIQEIVTPNTAIISETGDSWFNCQKLRLPENCGYEFQMQYGSIGWSVGATLGYAQGAKDKRVIACIGDGSFQVTAQDISTMIRCGQNTIIFLINNGGYTIEVEIHDGPYNVIKNWDYTGLVDAIHNGEGKCWTTKVRTEEDLTEAIAKATGEHKDSLCFIEVFVHKDDTRKELLEWGSRVSAANSRPPNPQ
notes: recombinant, baculovirus-insect cell (HighFive) expression, purified by DEAE, Phenyl HP and Superdex 200; cDNA from rose petals
Km (purified protein): 4.70 ± 0.32 mM | kcat (purified protein): 0.0215 ± 0.0005 s⁻¹ | Km [1]: 1.32 ± 0.06 mM | kcat [1]: 0.0297 ± 0.00033 s⁻¹
